Results on 4 compounds are retold here after US20210284688A1, “MUCUS-PENETRATING PEPTIDES AND SCREENING ASSAY” (BOARD OF REGENTS, THE UNIVERSITY OF TEXAS SYSTEM, priority 2016, published 2021).

Structures can show the parent of a compound that is named as a salt. Where no end group is shown, it is not given here.

One series can be described thus: Figure 17. From the text:
Table printed on a drawing sheet, Figure 17
AK10 and Dextran 40 kDa are controls.
First reader's note: The Sample column holds peptide sequences with SEQ ID NOs as well as non-peptide controls; on the sheet the PBS/CM sub-heads stand in one merged head cell, split here into a second head row.

The next series in a line: Figure 15. From the text:
Table printed on a drawing sheet, Figure 15

On to `O=C1OC2(c3ccc(O)cc3Oc3cc(O)ccc32)c2ccccc21` [Fluorescein Na Salt], for which, in “Figure 17”, the “De/10^-5 cm^2 s^-1 | CM” value is recorded as 1.05 10^-5 cm^2 s^-1.
Take “M13 ISLPSPTGGGS (SEQ ID NO: 29) (also: displayed on M13 phage)”: in the series “Figure 15”, the “De/10^-9 cm^2 s^-1 | CM” value is recorded as 4.00 10^-9 cm^2 s^-1.
As for “M13 SSQLSRPGGGS (SEQ ID NO: 30) (also: displayed on M13 phage)”, in “Figure 15”, the “De/10^-9 cm^2 s^-1 | CM” value is given as 1.72 10^-9 cm^2 s^-1.
Turning to “M13 YNSPTHHGGGS (SEQ ID NO: 31) (also: displayed on M13 phage)”, in “Figure 15”, the “De/10^-9 cm^2 s^-1 | CM” value is listed as 1.45 10^-9 cm^2 s^-1.
